Kd data for four molecules are collected here from patent US20210172932A1 (published 2021).

Sequences and labels used below:
B1: Tocilizumab (antibody)
chain 1: not shown
chain 2: not shown
B2: Emicizumab (bispecific antibody)
chain 1: DIQMTQSPSSLSASVGDRVTITCKASRNIERQLAWYQQKPGQAPELLIYQASRKESGVPDRFSGSRYGTDFTLTISSLQPEDIATYYCQQYSDPPLTFGGGTKVEIKRTAAAPSVFIFPPSDEQLKSGTASVVCLLNNFYPREAKVQWKVDNALQSGNSQESVTEQDSKDSTYSLSSTLTLSKADYEKHKVYACEVTHQGLSSPVTKSFNRGEC
chain 2: QVQLVESGGGLVQPGGSLRLSCAASGFTFSYYDIQWVRQAPGKGLEWVSSISPSGQSTYYRREVKGRFTISRDNSKNTLYLQMNSLRAEDTAVYYCARRTGREYGGGWYFDYWGQGTLVTVSSASTKGPSVFPLAPCSRSTSESTAALGCLVKDYFPEPVTVSWNSGALTSGVHTFPAVLQSSGLYSLSSVVTVPSSSLGTQTYTCNVDHKPSNTKVDKRVESKYGPPCPPCPAPEFLGGPSVFLFPPKPKDTLMISRTPEVTCVVVDVSQEDPEVQFNWYVDGVEVHNAKTKPREEQYNSTYRVVSVLTVLHQDWLNGKEYKCKVSNKGLPSSIEKTISKAKGQPREPQVYTLPPSQKEMTKNQVSLTCLVKGFYPSDIAVEWESNGQPENNYKTTPPVLDSDGSFFLYSKLTVDKSRWQEGNVFSCSVMHEALHNRYTQKSLSLSPEQKLISEEDLNAVGQDTQEVIVVPHSLPFKVVVISAILALVVLTIISLIILIMLWQKKPR
chain 3: QVQLVQSGSELKKPGASVKVSCKASGYTFTDNNMDWVRQAPGQGLEWMGDINTRSGGSIYNEEFQDRVIMTVDKSTDTAYMELSSLRSEDTATYHCARRKSYGYYLDEWGEGTLVTVSSASTKGPSVFPLAPCSRSTSESTAALGCLVKDYFPEPVTVSWNSGALTSGVHTFPAVLQSSGLYSLSSVVTVPSSSLGTQTYTCNVDHKPSNTKVDKRVESKYGPPCPPCPAPEFLGGPSVFLFPPKPKDTLMISRTPEVTCVVVDVSQEDPEVQFNWYVDGVEVHNAKTKPREEQYNSTYRVVSVLTVLHQDWLNGKEYKCKVSNKGLPSSIEKTISKAKGQPREPQVYTLPPSQEEMTKNQVSLTCLVKGFYPSDIAVEWESNGQPENNYKTTPPVLDSDGSFFLYSKLTVDKSRWQEGNVFSCSVMHEALHNHYTQESLSLSPEQKLISEEDLNAVGQDTQEVIVVPHSLPFKVVVISAILALVVLTIISLIILIMLWQKKPR
B3: Vedolizumab (antibody)
chain 1: not shown
chain 2: DVVMTQSPLSLPVTPGEPASISCRSSQSLAKSYGNTYLSWYLQKPGQSPQLLIYGISNRFSGVPDRFSGSGSGTDFTLKISRVEAEDVGVYYCLQGTHQPYTFGQGTKVEIKRTVAAPSVFIFPPSDEQLKSGTASVVCLLNNFYPREAKVQWKVDNALQSGNSQESVTEQDSKDSTYSLSSTLTLSKADYEKHKVYACEVTHQGLSSPVTKSFNRGEC
B4: Pembrolizumab (antibody)
chain 1: not shown
chain 2: EIVLTQSPATLSLSPGERATLSCRASKGVSTSGYSYLHWYQQKPGQAPRLLIYLASYLESGVPARFSGSGSGTDFTLTISSLEPEDFAVYYCQHSRDLPLTFGGGTKVEIKRTVAAPSVFIFPPSDEQLKSGTASVVCLLNNFYPREAKVQWKVDNALQSGNSQESVTEQDSKDSTYSLSSTLTLSKADYEKHKVYACEVTHQGLSSPVTKSFNRGEC

In the test the target is T1, human FcRn (immobilized on nickel-nitrilotriacetic acid-coated biosensors) (human, UniProt P55899 24-297; P61769 21-119).
T1 construct: also called neonatal Fc receptor
Put plainly: BLI (Octet RED), FcRn on Ni-NTA biosensor, pH 6.0. For orientation: BLI is a label-free optical method that tracks binding on a fibre tip over time.
In general, Kd refers to the equilibrium constant for the complex coming apart. With B1, the Kd turned out to be 0.46 µM.

As to B2, the affinity, expressed as Kd, was 1.23 µM.

Molecule B3 returned a Kd of 0.61 µM.

Molecule B4 displayed a Kd of 0.29 µM.
